Where no end group is shown, it is not given here.
Key:
[1] = target: Atto647N-YidC-23C (Escherichia coli) (UniProt P25714)
[2] = target: Atto647N-YidC-23C (Escherichia coli) (UniProt P25714); assay: FRET or BRET; single-pair FRET by confocal microscopy with alternating laser excitation (514 nm / 635 nm); Atto520-labeled Pf3 coat protein added to Atto647N-labeled YidC reconstituted in DOPC proteoliposomes; 20 mM Tris-HCl pH 7.0, 100 mM NaCl, isopropanol from the Pf3 solution; about 0.2 nM of both labeled proteins; bursts recorded for 420 s
[3] = target: Atto647N-YidC-442C (Escherichia coli) (UniProt P25714); assay: as above
[4] = target: Atto647N-YidC-511C (Escherichia coli) (UniProt P25714); assay: as above

MQSVITDVTGQLTAVC(Atto520‑maleimide)ADITTIGGAIIVLAAVVLGIRWIKAQFF (natural protein) [Atto520-Pf3-16C]
insertion rate k (reciprocal of the time required for a distance change from 6.2 to 4.0 nm in single-pair FRET traces), at 15, 20, 25 and 30°C; k ≈ 250 s^−1 at 15°C [1]: 500 s⁻¹ | duration of the close contact [2]: 10 ms | duration of the close contact [3]: 10 ms | duration of the close contact [4]: 10 ms

Source: publication PMC3602594
